Reference: patent publication US11571484B2, “Compositions that target tumor-associated macrophages and methods of use therefor” (Sanford Burnham Prebys Medical Discovery Institute, priority 2017, dated 2023)
Ends that are not written are not given here. FAM = 5(6)-carboxyfluorescein; Ahx = NCCCCCC(=O)O

Target: T1, recombinant mouse macrophage mannose receptor rmMMR/CD206 (Mus musculus, UniProt Q61830)
T1 construct: purchased R&D Systems 2535-MM-050
T1 sequence (Q61830 20-1456): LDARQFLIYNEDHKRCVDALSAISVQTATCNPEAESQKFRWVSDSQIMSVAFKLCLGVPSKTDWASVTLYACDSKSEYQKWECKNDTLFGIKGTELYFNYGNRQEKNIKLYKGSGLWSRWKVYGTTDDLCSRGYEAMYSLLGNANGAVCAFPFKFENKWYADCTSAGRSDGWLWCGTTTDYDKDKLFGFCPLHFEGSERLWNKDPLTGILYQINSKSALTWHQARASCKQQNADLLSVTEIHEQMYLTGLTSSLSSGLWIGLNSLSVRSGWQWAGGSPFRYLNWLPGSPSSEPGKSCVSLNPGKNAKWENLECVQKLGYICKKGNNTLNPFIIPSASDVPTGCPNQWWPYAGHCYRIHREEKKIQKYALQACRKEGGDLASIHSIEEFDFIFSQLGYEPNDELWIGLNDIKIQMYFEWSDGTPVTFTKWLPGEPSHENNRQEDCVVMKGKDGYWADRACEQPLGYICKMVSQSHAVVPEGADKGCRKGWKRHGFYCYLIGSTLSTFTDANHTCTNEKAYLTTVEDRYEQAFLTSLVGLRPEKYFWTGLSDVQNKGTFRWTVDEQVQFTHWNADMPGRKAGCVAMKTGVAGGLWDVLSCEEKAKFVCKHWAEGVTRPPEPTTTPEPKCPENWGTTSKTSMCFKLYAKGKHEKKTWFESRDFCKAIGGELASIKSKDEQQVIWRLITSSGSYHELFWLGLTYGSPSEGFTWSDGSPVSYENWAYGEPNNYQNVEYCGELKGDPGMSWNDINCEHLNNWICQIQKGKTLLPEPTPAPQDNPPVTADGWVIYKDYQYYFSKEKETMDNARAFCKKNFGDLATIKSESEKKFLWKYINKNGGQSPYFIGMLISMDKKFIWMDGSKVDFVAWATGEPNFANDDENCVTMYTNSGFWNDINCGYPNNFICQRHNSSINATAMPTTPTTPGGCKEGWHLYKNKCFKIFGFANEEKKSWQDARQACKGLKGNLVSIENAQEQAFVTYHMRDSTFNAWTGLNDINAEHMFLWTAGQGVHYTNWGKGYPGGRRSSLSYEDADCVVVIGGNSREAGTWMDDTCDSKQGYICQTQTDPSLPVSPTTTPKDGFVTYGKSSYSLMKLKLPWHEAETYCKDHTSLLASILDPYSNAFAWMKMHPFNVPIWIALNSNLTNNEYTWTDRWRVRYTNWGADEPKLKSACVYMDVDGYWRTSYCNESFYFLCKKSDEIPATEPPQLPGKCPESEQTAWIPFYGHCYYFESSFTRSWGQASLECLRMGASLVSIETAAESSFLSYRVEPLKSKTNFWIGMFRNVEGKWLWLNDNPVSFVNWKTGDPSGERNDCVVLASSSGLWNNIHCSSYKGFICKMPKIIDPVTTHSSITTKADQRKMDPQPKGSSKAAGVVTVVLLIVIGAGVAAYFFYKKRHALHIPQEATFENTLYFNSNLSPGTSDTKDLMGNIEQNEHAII
Assay: Fluorescence anisotropy assay with mouse recombinant CD206
Type: binding
Conditions: 50 nM FAM peptide, 1 μM protein, 25 °C
Method: The stocks of fluorescent ligands (FAM-UNO, FAM-CSPGAK and FAM-CPMTDNE) in mQ water were stored at −20° C. […], 150 mM NaCl, 1 mM CaCl2, 0.1% Pluronic F-127, pH 7.4) on the day of experiment. The concentration of fluorescent ligands was determined by absorbance of FAM (E495=75000 M^−1 cm^−1).
The recombinant mouse macrophage mannose receptor rmMMR/CD206 (R&D Systems, catalog number: 2535-MM-050) and recombinant mouse CD163 (R&D Systems, catalog number: 7435-CD-050) were reconstituted at 1 mg/ml in IB, aliquoted and stored at −20° C. To generate linearized version of cyclic FAM-UNO peptide, the peptide at 1 mM concentration was preincubated for 24 h at room temperature in a dark place with 3 mM DTT and diluted with IB 2×10^5 times before the FA assay. The control experiment with FAM-CPMTDNE peptide (FIG. 22) was performed to rule out the possibility of disulphide bond formation, which could affect the binding properties of linear peptides. Initially, the peptide was preincubated in DMSO for 4 days at room temperature to enhance the disulphide bond formation, and then diluted in IB buffer with 3 mM DTT, and the disappearance of preformed dimer was observed as a change in FA signal.
In all experiments, FA signal measurements were done under pseudo first-order conditions with 50 nM singly labelled FAM peptides and 1 μM proteins. […] Assays were carried out in kinetic mode in a total volume of 30 μl at 25° C. on the PHERAstar (BMG Labtech, Germany) microplate reader using an optical module with excitation and emission filters of 485 nm (slit 10 nm) and 520 nm (slit 10 nm), respectively. Dual emission detection mode allows simultaneous recording of intensities that are parallel (l) and perpendicular (1) to the plane of excitation light. […] The background fluorescence (receptor and buffer components in the absence of fluorescent ligand) was subtracted independently from all intensity channels. FA signals at time t after initiation of binding reaction was calculated as parameters r(t) from the equation: […]

Substance	change in fluorescence anisotropy (interaction) with mouse recombinant CD206
FAM-CSPGAK: FAM-labeled linear CSPGAK (SEQ ID NO: 6) (not fully specified; FAM label)	clear time-dependent increase of anisotropy
FAM-UNO: FAM-labeled UNO peptide CSPGAKVRC (SEQ ID NO: 1); 5(6)-carboxyfluorescein with 6-aminohexanoic acid spacer at the N-terminus ({FAM-Ahx}-CSPGAKVRC; cysteine pairing not given here)	did not cause a change in the fluorescence anisotropy
